Data as given in patent publication US20240141045A1 (PRECIGEN, published 2024).

B1: Anti-PD1(VH7-VL6) IgG4-TGFβRII (antibody)
heavy: QVQLVQSGVEVKKPGASVKVSCKASGYTFTNYYMYWVRQAPGQGLEWMGGINPSNGGTNFNEKFKNRVTLTTDSSTTTAYMELKSLQFDDTAVYYCARRDYRFDMGFDYWGQGTTVTVSSASTKGPSVFPLAPCSRSTSESTAALGCLVKDYFPEPVTVSWNSGALTSGVHTFPAVLQSSGLYSLSSVVTVPSSSLGTKTYTCNVDHKPSNTKVDKRVESKYGPPCPSCPAPEFLGGPSVFLFPPKPKDTLMISRTPEVTCVVVDVSQEDPEVQFNWYVDGVEVHNAKTKPREEQFNSTYRVVSVLTVLHQDWLNGKEYKCKVSNKGLPSSIEKTISKAKGQPREPQVYTLPPSQEEMTKNQVSLTCLVKGFYPSDIAVEWESNGQPENNYKTTPPVLDSDGSFFLYSRLTVDKSRWQEGNVFSCSVMHEALHNHYTQKSLSLSPGKGGGGSGGGGSIPPHVQKSVNNDMIVTDNNGAVKFPQLCKFCDVRFSTCDNQKSCMSNCSITSICEKPQEVCVAVWRKNDENITLETVCHDPKLPYHDFILEDAASPKCIMKEKKKPGETFFMCSCSSDECNDNIIFSEEYNTSNPD
light: EIVLTQSPATLSLSPGERATLSCRASKGVSTSGYSYLHWYQQKPGQAPRLLIYLASYLESGVPARFSGSGSGTDFTLTISSLEPEDFAVYYCQHSRDLPLTFGGGTKVEIKRTVAAPSVFIFPPSDEQLKSGTASVVCLLNNFYPREAKVQWKVDNALQSGNSQESVTEQDSKDSTYSLSSTLTLSKADYEKHKVYACEVTHQGLSSPVTKSFNRGEC
B2: Anti-PD1 (VL6-VH7).IgG4(S108P).TGFbRII (antibody)
heavy: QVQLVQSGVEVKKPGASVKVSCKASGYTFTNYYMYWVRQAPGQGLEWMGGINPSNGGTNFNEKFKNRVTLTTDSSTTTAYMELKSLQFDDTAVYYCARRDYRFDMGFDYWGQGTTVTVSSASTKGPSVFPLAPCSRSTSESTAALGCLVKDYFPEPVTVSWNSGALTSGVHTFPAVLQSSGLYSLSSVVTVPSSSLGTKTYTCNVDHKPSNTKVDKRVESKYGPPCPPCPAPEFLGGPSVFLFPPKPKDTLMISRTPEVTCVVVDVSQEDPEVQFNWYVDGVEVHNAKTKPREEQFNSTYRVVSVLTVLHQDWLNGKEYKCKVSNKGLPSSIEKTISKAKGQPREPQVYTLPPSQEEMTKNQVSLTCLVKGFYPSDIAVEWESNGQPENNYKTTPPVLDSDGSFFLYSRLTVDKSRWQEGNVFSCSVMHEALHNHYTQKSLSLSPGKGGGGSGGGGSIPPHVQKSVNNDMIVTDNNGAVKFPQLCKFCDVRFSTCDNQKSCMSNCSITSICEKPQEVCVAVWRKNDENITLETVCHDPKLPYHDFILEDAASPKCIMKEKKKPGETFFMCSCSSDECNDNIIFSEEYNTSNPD
light: B1 light
B3: Anti-PD1 (VL5-VH6).IgG4 (antibody, V domains shown)
VH: QVQLVESGGGVVQPGRSLRLDCKASGITFSNSGMHWVRQAPGKGLEWVAVIWYDGSKRYYADSVKGRFTISRDNSKNTLFLQMNSLRAEDTAVYYCATNDDYWGQGTLVTVSS
VL: EIVLTQSPATLSLSPGERATLSCRASQSVSSYLAWYQQKPGQAPRLLIYDASNRATGIPARFSGSGSGTDFTLTISSLEPEDFAVYYCQQSSNWPRTFGQGTKVEIK
B4: Anti-PD1 (VL5-VH6).IgG4-Linker7-TGFbRII (antibody)
heavy: QVQLVESGGGVVQPGRSLRLDCKASGITFSNSGMHWVRQAPGKGLEWVAVIWYDGSKRYYADSVKGRFTISRDNSKNTLFLQMNSLRAEDTAVYYCATNDDYWGQGTLVTVSSASTKGPSVFPLAPCSRSTSESTAALGCLVKDYFPEPVTVSWNSGALTSGVHTFPAVLQSSGLYSLSSVVTVPSSSLGTKTYTCNVDHKPSNTKVDKRVESKYGPPCPSCPAPEFLGGPSVFLFPPKPKDTLMISRTPEVTCVVVDVSQEDPEVQFNWYVDGVEVHNAKTKPREEQFNSTYRVVSVLTVLHQDWLNGKEYKCKVSNKGLPSSIEKTISKAKGQPREPQVYTLPPSQEEMTKNQVSLTCLVKGFYPSDIAVEWESNGQPENNYKTTPPVLDSDGSFFLYSRLTVDKSRWQEGNVFSCSVMHEALHNHYTQKSLSLSPGKDPGSGSVPLGSGSNPGSIPPHVQKSVNNDMIVTDNNGAVKFPQLCKFCDVRFSTCDNQKSCMSNCSITSICEKPQEVCVAVWRKNDENITLETVCHDPKLPYHDFILEDAASPKCIMKEKKKPGETFFMCSCSSDECNDNIIFSEEYNTSNPD
light: not shown
B5: Anti-PD1 (VL5-VH6).IgG4-Linker8-TGFbRII (antibody)
heavy: QVQLVESGGGVVQPGRSLRLDCKASGITFSNSGMHWVRQAPGKGLEWVAVIWYDGSKRYYADSVKGRFTISRDNSKNTLFLQMNSLRAEDTAVYYCATNDDYWGQGTLVTVSSASTKGPSVFPLAPCSRSTSESTAALGCLVKDYFPEPVTVSWNSGALTSGVHTFPAVLQSSGLYSLSSVVTVPSSSLGTKTYTCNVDHKPSNTKVDKRVESKYGPPCPSCPAPEFLGGPSVFLFPPKPKDTLMISRTPEVTCVVVDVSQEDPEVQFNWYVDGVEVHNAKTKPREEQFNSTYRVVSVLTVLHQDWLNGKEYKCKVSNKGLPSSIEKTISKAKGQPREPQVYTLPPSQEEMTKNQVSLTCLVKGFYPSDIAVEWESNGQPENNYKTTPPVLDSDGSFFLYSRLTVDKSRWQEGNVFSCSVMHEALHNHYTQKSLSLSPGKDPGSGGSVPLGSGGSNPGSIPPHVQKSVNNDMIVTDNNGAVKFPQLCKFCDVRFSTCDNQKSCMSNCSITSICEKPQEVCVAVWRKNDENITLETVCHDPKLPYHDFILEDAASPKCIMKEKKKPGETFFMCSCSSDECNDNIIFSEEYNTSNPD
light: not shown
B6: Anti-PD1 (VL5-VH6).IgG4-Linker12-TGFbRII (antibody)
heavy: QVQLVESGGGVVQPGRSLRLDCKASGITFSNSGMHWVRQAPGKGLEWVAVIWYDGSKRYYADSVKGRFTISRDNSKNTLFLQMNSLRAEDTAVYYCATNDDYWGQGTLVTVSSASTKGPSVFPLAPCSRSTSESTAALGCLVKDYFPEPVTVSWNSGALTSGVHTFPAVLQSSGLYSLSSVVTVPSSSLGTKTYTCNVDHKPSNTKVDKRVESKYGPPCPSCPAPEFLGGPSVFLFPPKPKDTLMISRTPEVTCVVVDVSQEDPEVQFNWYVDGVEVHNAKTKPREEQFNSTYRVVSVLTVLHQDWLNGKEYKCKVSNKGLPSSIEKTISKAKGQPREPQVYTLPPSQEEMTKNQVSLTCLVKGFYPSDIAVEWESNGQPENNYKTTPPVLDSDGSFFLYSRLTVDKSRWQEGNVFSCSVMHEALHNHYTQKSLSLSPGKDPVLEREDKVTTSKNPGSIPPHVQKSVNNDMIVTDNNGAVKFPQLCKFCDVRFSTCDNQKSCMSNCSITSICEKPQEVCVAVWRKNDENITLETVCHDPKLPYHDFILEDAASPKCIMKEKKKPGETFFMCSCSSDECNDNIIFSEEYNTSNPD
light: not shown
B7: Anti-PD1 (VL5-VH6).IgG4-Linker 2-TGFbRII (antibody)
heavy: QVQLVESGGGVVQPGRSLRLDCKASGITFSNSGMHWVRQAPGKGLEWVAVIWYDGSKRYYADSVKGRFTISRDNSKNTLFLQMNSLRAEDTAVYYCATNDDYWGQGTLVTVSSASTKGPSVFPLAPCSRSTSESTAALGCLVKDYFPEPVTVSWNSGALTSGVHTFPAVLQSSGLYSLSSVVTVPSSSLGTKTYTCNVDHKPSNTKVDKRVESKYGPPCPSCPAPEFLGGPSVFLFPPKPKDTLMISRTPEVTCVVVDVSQEDPEVQFNWYVDGVEVHNAKTKPREEQFNSTYRVVSVLTVLHQDWLNGKEYKCKVSNKGLPSSIEKTISKAKGQPREPQVYTLPPSQEEMTKNQVSLTCLVKGFYPSDIAVEWESNGQPENNYKTTPPVLDSDGSFFLYSRLTVDKSRWQEGNVFSCSVMHEALHNHYTQKSLSLSPGKGGGGSGGGSIPPHVQKSVNNDMIVTDNNGAVKFPQLCKFCDVRFSTCDNQKSCMSNCSITSICEKPQEVCVAVWRKNDENITLETVCHDPKLPYHDFILEDAASPKCIMKEKKKPGETFFMCSCSSDECNDNIIFSEEYNTSNPD
light: not shown
B8: Anti-PD1 (VH7-VL6) IgG4-ADA2 (antibody)
heavy (part 1 of 2): QVQLVQSGVEVKKPGASVKVSCKASGYTFTNYYMYWVRQAPGQGLEWMGGINPSNGGTNFNEKFKNRVTLTTDSSTTTAYMELKSLQFDDTAVYYCARRDYRFDMGFDYWGQGTTVTVSS
heavy (part 2 of 2): GGGGSGGGGSSIDETRAHLLLKEKMMRLGGRLVLNTKEELANERLMTLKIAEMKEAMRTLIFPPSMHFFQAKHLIERSQVFNILRMMPKGAALHLHDIGIVTMDWLVRNVTYRPHCHICFTPRGIMQFRFAHPTPRPSEKCSKWILLEDYRKRVQNVTEFDDSLLRNFTLVTQHPEVIYTNQNVVWSKFETIFFTISGLIHYAPVFRDYVFRSMQEFYEDNVLYMEIRARLLPVYELSGEHHDEEWSVKTYQEVAQKFVETHPEFIGIKIIYSDHRSKDVAVIAESIRMAMGLRIKFPTVVAGFDLVGHEDTGHSLHDYKEALMIPAKDGVKLPYFFHAGETDWQGTSIDRNILDALMLNTTRIGHGFALSKHPAVRTYSWKKDIPIEVCPISNQVLKLVSDLRNHPVATLMATGHPMVISSDDPAMFGAKGLSYDFYEVFMGIGGMKADLRTLKQLAMNSIKYSTLLESEKNTFMEIWKKRWDKFIADVATK
light: B1 light
notes: not shown: IgG4 heavy chain constant region
B9: Anti-PD1 (VH7-VL6) IgG1-ADA2 (antibody)
heavy (part 1 of 2): B8 heavy (part 1 of 2)
heavy (part 2 of 2): B8 heavy (part 2 of 2)
light: EIVLTQSPATLSLSPGERATLSCRASKGVSTSGYSYLHWYQQKPGQAPRLLIYLASYLESGVPARFSGSGSGTDFTLTISSLEPEDFAVYYCQHSRDLPLTFGGGTKVEIK
notes: not shown: IgG1 heavy chain constant region; light chain constant region
B10: Anti-PD1 (VH7-VL6) scFv-ADA2 (scFv)
chain 1: B8 heavy (part 1 of 2)
chain 2: B9 light
chain 3: B8 heavy (part 2 of 2)
B11: Anti-PD1 (VH6-VL5) IgG4-ADA2 (antibody)
heavy (part 1 of 2): B3 VH
heavy (part 2 of 2): B8 heavy (part 2 of 2)
light: not shown
notes: as for B8
B12: Anti-PD1 (VH6-VL5) scFv-ADA2 (scFv)
chain 1: B3 VH
chain 2: B3 VL
chain 3: B8 heavy (part 2 of 2)

These binders were tested against T1, TGF-β1 (UniProt P01137 279-390) (assay: cell-based or functional assay).
T1 sequence (P01137 279-390 limits assumed): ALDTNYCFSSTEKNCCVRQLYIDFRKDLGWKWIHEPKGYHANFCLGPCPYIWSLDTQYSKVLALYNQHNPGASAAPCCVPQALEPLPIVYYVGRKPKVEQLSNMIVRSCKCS
With B1 the “IC50, inhibition of TGF-β1 induced reporter gene activity (HEK-Blue TGF-β cells, SEAP)” value (“IC50, inhibition” for short) was 5.6 pM.
B2 was tested, and the “IC50, inhibition” value was 9.3 pM.
With B3 the “IC50, inhibition” value was 9 pM.

Target: T1, TGF-β1
Test: cell-based or functional assay
Remark: another data set of the same source
For B4, the “IC50, TGF-β1 neutralization activity (HEK-Blue TGF-β reporter cells)” value (“IC50, TGF-β1 neutralization activity” for short) was 1.1 pM.
B5 was tested, and the “IC50, TGF-β1 neutralization activity” value was 1.2 pM.
With B6 the “IC50, TGF-β1 neutralization activity” value was 2.7 pM.
For B7, the “IC50, TGF-β1 neutralization activity” value was 1.2 pM.

These binders were tested against T2, PD-1 Fc fusion protein (UniProt Q15116 25-167, limits assumed) (assay: SPR (Biacore 3000), recombinant PD-1 Fc immobilised on CM5 chip, fusion protein injected).
T2 construct: Antigen immobilised on the CM5 chip in all PD-1 SPR assays; also called PD-1 fused to human Fc region; PD-1-Fc antigen; not shown: human Fc region
T2 sequence (Q15116 25-167 limits assumed): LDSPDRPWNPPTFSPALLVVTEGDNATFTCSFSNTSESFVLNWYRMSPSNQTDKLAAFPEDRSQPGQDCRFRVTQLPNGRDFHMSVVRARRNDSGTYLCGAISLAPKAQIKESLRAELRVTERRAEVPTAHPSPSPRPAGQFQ
Method: Surface plasma resonance (SPR) analysis was performed using Biacore3000, CM5 chip, an amine-coupling kit, 10×HBS-P running buffer and Glycine for. […] Dissociation was allowed to proceed followed by regeneration of the chip surface.
For B8, the Kd was 0.0663 pM.
B9 was tested, and the Kd was 0.509 pM.
B10 gave a Kd of 130 pM.
Binder B11 has a Kd of 0.0616 pM.
B12 showed a Kd of 3460 pM.
